Non-standard residues stand in square brackets, D forms with d. pT = C[C@@H](OP(=O)(O)O)[C@H](N)C(=O)O
T1: PEAK3^FL from insect cells, phosphorylated by Src (human), Q6ZS72
T1 chain: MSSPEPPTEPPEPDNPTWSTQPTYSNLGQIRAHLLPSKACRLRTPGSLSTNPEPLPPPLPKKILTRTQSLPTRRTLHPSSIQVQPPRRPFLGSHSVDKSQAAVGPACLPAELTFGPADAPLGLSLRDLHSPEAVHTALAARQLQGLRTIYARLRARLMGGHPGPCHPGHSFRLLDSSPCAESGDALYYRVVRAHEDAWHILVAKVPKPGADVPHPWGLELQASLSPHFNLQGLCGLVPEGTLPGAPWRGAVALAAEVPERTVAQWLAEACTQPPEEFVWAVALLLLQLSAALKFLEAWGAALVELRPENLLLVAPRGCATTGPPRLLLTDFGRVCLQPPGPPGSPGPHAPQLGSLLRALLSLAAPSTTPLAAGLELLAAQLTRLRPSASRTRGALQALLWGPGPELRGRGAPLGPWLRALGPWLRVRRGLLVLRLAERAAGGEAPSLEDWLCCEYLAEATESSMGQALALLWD

T2: PEAK3^FL from E. coli, phosphorylated by Src (human), Q6ZS72
T2 chain: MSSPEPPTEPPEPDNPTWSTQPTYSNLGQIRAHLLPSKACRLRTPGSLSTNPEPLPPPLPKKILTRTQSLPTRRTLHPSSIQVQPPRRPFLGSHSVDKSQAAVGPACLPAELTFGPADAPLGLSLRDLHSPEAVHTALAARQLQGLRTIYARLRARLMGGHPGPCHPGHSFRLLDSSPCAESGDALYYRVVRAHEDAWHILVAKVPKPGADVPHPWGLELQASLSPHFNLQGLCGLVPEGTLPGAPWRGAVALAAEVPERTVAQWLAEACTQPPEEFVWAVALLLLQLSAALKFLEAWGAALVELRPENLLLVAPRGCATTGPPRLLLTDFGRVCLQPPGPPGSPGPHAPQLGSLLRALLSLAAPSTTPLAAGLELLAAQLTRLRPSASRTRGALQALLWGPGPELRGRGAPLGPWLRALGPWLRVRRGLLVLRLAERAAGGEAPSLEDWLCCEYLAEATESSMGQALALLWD

T3: full length PEAK3 from insect cells (PEAK3^FL, S69 phosphorylated) (human), Q6ZS72
T3 chain: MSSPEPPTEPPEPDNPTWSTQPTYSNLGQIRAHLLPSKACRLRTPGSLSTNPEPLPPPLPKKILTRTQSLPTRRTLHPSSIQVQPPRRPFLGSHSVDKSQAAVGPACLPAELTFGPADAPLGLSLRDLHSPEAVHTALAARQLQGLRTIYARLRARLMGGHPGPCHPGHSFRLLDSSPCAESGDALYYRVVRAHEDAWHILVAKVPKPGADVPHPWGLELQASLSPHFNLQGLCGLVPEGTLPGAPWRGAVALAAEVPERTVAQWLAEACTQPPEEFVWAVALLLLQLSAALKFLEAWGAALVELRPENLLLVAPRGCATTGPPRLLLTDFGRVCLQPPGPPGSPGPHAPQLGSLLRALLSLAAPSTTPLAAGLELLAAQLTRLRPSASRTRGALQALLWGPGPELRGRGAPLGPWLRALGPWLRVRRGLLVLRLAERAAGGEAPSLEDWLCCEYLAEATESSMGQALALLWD

T4: full length PEAK3 (PEAK3^FL, residues 1-473), from E. coli (human), Q6ZS72
T4 chain: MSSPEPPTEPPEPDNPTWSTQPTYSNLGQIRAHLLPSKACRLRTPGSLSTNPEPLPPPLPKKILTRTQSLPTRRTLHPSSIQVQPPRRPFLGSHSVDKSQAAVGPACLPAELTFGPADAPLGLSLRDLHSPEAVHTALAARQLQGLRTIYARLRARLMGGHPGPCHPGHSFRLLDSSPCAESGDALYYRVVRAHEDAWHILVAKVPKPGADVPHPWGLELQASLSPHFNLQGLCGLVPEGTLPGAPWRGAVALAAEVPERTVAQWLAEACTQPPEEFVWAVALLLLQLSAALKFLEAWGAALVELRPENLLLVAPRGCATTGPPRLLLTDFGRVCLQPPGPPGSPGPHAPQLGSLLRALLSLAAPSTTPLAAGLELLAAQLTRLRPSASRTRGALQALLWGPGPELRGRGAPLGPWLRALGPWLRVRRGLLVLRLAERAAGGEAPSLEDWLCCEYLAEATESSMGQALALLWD

T5: full length PEAK3 (PEAK3^FL, residues 1-473), from insect cells, phosphorylated by Src (human), Q6ZS72
T5 chain: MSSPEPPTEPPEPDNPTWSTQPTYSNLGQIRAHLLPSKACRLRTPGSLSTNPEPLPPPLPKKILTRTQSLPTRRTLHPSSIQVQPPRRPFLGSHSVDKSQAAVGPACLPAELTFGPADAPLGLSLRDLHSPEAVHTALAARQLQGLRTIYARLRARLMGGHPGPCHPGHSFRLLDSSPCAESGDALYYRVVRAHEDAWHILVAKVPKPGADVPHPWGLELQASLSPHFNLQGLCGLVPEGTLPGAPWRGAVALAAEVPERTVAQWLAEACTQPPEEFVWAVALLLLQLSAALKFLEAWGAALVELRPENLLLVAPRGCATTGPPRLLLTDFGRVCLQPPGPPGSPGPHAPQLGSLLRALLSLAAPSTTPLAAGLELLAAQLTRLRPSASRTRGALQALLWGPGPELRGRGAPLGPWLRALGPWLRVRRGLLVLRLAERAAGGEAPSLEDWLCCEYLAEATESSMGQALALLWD

T6: full length PEAK3 (PEAK3^FL, residues 1-473), from E. coli, phosphorylated by Src (human), Q6ZS72
T6 chain: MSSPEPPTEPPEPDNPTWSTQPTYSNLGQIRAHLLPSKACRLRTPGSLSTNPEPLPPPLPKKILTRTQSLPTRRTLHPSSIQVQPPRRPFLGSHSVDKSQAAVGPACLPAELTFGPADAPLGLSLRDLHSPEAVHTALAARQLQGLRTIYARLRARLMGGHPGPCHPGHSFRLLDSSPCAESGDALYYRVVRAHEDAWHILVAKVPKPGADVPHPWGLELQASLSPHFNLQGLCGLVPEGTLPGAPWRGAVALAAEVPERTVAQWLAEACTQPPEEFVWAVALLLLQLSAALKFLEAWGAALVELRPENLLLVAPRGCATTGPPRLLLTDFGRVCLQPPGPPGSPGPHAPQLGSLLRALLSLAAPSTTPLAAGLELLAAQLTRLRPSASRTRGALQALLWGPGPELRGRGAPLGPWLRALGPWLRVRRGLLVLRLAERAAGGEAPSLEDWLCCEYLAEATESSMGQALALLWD


How the values were obtained:
14-3-3σ (sigma) (human) = assay: SPR; 14-3-3 isoforms amine coupled to a CM5 chip, tandem peptides as analytes (10 µM-10 nM for PEAK3 tandem-pS69, 20 µM-20 nM for all others); Biacore S200, 20 °C, HBS-TP; steady state, 1:1 model
Sequence of 14-3-3σ (sigma) (human) (A8K1N0 whole entry, the tested form may be a part, canonical isoform): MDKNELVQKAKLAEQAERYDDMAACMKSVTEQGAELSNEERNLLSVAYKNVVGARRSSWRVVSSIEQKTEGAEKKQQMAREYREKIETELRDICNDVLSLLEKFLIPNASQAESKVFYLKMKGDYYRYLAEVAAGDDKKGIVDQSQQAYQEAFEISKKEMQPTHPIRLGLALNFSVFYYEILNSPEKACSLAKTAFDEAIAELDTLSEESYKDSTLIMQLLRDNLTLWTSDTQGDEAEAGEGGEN

[1] = biological target: 14-3-3η (residues 1-246) (human); assay: as above
[2] = biological target: 14-3-3γ (residues 1-247) (human); assay: as above
[3] = biological target: T1, PEAK3^FL from insect cells, …; assay: SPR; conditions: natural protein, biotin (EZ-Link NHS-PEG4-Biotin) where immobilised for SPR, phosphotyrosine at 24 (by Src in vitro, MS/MS), phosphoserine at 69, remark: other sources report otherwise
[4] = biological target: T2, PEAK3^FL from E. coli, phosphorylated …; assay: SPR; conditions: natural protein, biotin (EZ-Link NHS-PEG4-Biotin) where immobilised for SPR, phosphotyrosine at 24 (by Src in vitro; the MS/MS was told for PEAK3^FL in general), remark: other sources report otherwise
[5] = biological target: T3, full length PEAK3 from insect cells …; assay: SPR; conditions: natural protein, biotin (EZ-Link NHS-PEG4-Biotin) where immobilised for SPR, phosphoserine at 69, remark: other sources report otherwise
[6] = biological target: T4, full length PEAK3 (PEAK3^FL, residues …); assay: SPR; biotinylated PEAK proteins (with or without Src phosphorylation) captured with a biotin CAPture kit; Grb2 FL, Grb2 SH2, CrkII SH2, CrkII FL monomer or dimer as analytes; Biacore 8K+, 20 °C, HBS-TP with NaCl raised to 500 mM; 1 M NaCl regeneration; steady state; conditions: remark: other sources report otherwise
[7] = biological target: T5, full length PEAK3 (PEAK3^FL, residues …); assay: as above; conditions: remark: other sources report otherwise
[8] = biological target: T6, full length PEAK3 (PEAK3^FL, residues …); assay: as above; conditions: remark: other sources report otherwise
[9] = biological target: full length CrkII, dimer (CrkIIFL dimer) (human), P46108; assay: SEC-MALS; Superdex 200 Increase 10/300 GL, 20 mM HEPES pH 7.5, 150 mM NaCl, 1 mM TCEP, 0.5 ml/min; conditions: remark: other sources report otherwise

Binder	Kd (14-3-3σ (sigma) (human)) [nM]	Kd [1] [nM]	Kd [2] [nM]	Kd [4] [nM]	Kd [5] [nM]	Kd [6] [nM]	Kd [7] [nM]	further results
Ac-PPPLPQKKIVSRAASSPDGF-NH2 [PEAK2 tandem peptide, non-phosphorylated (residues 812-831)]	> 100000	–	–	–	–	–	–	–
Ac-PPPLPKKMIIRANTEPISKD-NH2 [PEAK1 tandem peptide, non-phosphorylated (residues 1152-1171)]	> 100000	> 100000	> 100000	–	–	–	–	–
full length CrkII, dimer (CrkII^FL dimer), P46108-1 1-304 (natural protein, here or on the partner: biotin (EZ-Link NHS-PEG4-Biotin, 1:1 molar ratio) where it was immobilised (a1); phosphorylated with Src kinase (Y24 is the site shown for PEAK3^FL by MS/MS); other Src sites not stated; biotin (EZ-Link NHS-PEG4-Biotin, 1:1 molar ratio)) MAGNFDSEERSSWYWGRLSRQEAVALLQGQRHGVFLVRDSSTSPGDYVLSVSENSRVSHYIINSSGPRPPVPPSPAQPPPGVSPSRLRIGDQEFDSLPALLEFYKIHYLDTTTLIEPVSRSRQGSGVILRQEEAEYVRALFDFNGNDEEDLPFKKGDILRIRDKPEEQWWNAEDSEGKRGMIPVPYVEKYRPASASVSALIGGNQEGSHPQPLGGPEPGPYAQPSVNTPLPNLQNGPIYARVIQKRVPNAYDKTALALEVGELVKVTKINVSGQWEGECNGKRGHFPFTHVRLLDQQNPDEDFS	–	–	–	2100	2400	7600	2180	Kd [3]: 2200 nM; Kd [8]: 2110 nM
full length CrkII, monomer (CrkII^FL monomer), P46108-1 1-304 (natural protein, here or on the partner: biotin (EZ-Link NHS-PEG4-Biotin, 1:1 molar ratio) where it was immobilised (a1); phosphoserine at S69; phosphotyrosine at Y24 (by Src in vitro, shown by MS/MS); other Src sites not stated; biotin (EZ-Link NHS-PEG4-Biotin, 1:1 molar ratio)) MAGNFDSEERSSWYWGRLSRQEAVALLQGQRHGVFLVRDSSTSPGDYVLSVSENSRVSHYIINSSGPRPPVPPSPAQPPPGVSPSRLRIGDQEFDSLPALLEFYKIHYLDTTTLIEPVSRSRQGSGVILRQEEAEYVRALFDFNGNDEEDLPFKKGDILRIRDKPEEQWWNAEDSEGKRGMIPVPYVEKYRPASASVSALIGGNQEGSHPQPLGGPEPGPYAQPSVNTPLPNLQNGPIYARVIQKRVPNAYDKTALALEVGELVKVTKINVSGQWEGECNGKRGHFPFTHVRLLDQQNPDEDFS	–	–	–	2600	12800	14100	2700	–
full length CrkII, dimer (CrkIIFL dimer), P46108-1 1-304 (natural protein, here or on the partner: biotin (EZ-Link NHS-PEG4-Biotin) in the SPR experiment only; biotin (EZ-Link NHS-PEG4-Biotin) in the SPR experiment only) MAGNFDSEERSSWYWGRLSRQEAVALLQGQRHGVFLVRDSSTSPGDYVLSVSENSRVSHYIINSSGPRPPVPPSPAQPPPGVSPSRLRIGDQEFDSLPALLEFYKIHYLDTTTLIEPVSRSRQGSGVILRQEEAEYVRALFDFNGNDEEDLPFKKGDILRIRDKPEEQWWNAEDSEGKRGMIPVPYVEKYRPASASVSALIGGNQEGSHPQPLGGPEPGPYAQPSVNTPLPNLQNGPIYARVIQKRVPNAYDKTALALEVGELVKVTKINVSGQWEGECNGKRGHFPFTHVRLLDQQNPDEDFS	–	–	–	–	–	–	–	stoichiometry N [9]: 2
Ac-PPPLPKKMIIRAN[pT]EPISKD-NH2 [PEAK1 tandem-pT1165 peptide (residues 1152-1171)]	9700	2560	1770	–	–	–	–	–

Source: PMC10279719
